According to patent US20230002480A1:

Experiments:
Test in all cases: cell-based or functional assay
[1] = biological target: HIV-1 Env of pseudovirus C4118.c09 (clade CRF01_AE) (HIV-1)
[2] = biological target: HIV-1 Env of pseudovirus R1166.c01 (clade CRF01_AE) (HIV-1)
[3] = biological target: HIV-1 Env of pseudovirus T251-18 (clade CRF02_AG) (HIV-1)
[4] = biological target: HIV-1 Env of pseudovirus T255-34 (clade CRF02_AG) (HIV-1)
[5] = biological target: HIV-1 Env of pseudovirus 1006_11_C3_1601 (clade B (T/F)) (HIV-1)
[6] = biological target: HIV-1 Env of pseudovirus 246F C1G (clade C (T/F)) (HIV-1)
[7] = biological target: HIV-1 Env of pseudovirus BF1266.431a (clade C (T/F)) (HIV-1)
[8] = biological target: HIV-1 Env of pseudovirus CNE17 (clade BC) (HIV-1)
[9] = biological target: HIV-1 Env of pseudovirus CNE20 (clade BC) (HIV-1)
[10] = biological target: HIV-1 Env of pseudovirus CNE58 (clade BC) (HIV-1)
[11] = biological target: HIV-1 Env of pseudovirus Ce0682_E4 (clade C (T/F)) (HIV-1)
[12] = biological target: HIV-1 Env of pseudovirus Ce1086_B2 (clade C (T/F)) (HIV-1)
[13] = biological target: HIV-1 Env of pseudovirus Ce1176_A3 (clade C (T/F)) (HIV-1)
[14] = biological target: HIV-1 Env of pseudovirus Ce2060_G9 (clade C (T/F)) (HIV-1)
[15] = biological target: HIV-1 Env of pseudovirus Ce704809221_1B3 (clade C (T/F)) (HIV-1)
[16] = biological target: HIV-1 Env of pseudovirus HIV-0013095-2.11 (clade C) (HIV-1)
[17] = biological target: HIV-1 Env of pseudovirus Q769.d22 (clade A) (HIV-1)
[18] = biological target: HIV-1 Env of pseudovirus SC05_8C11_2344 (clade B (T/F)) (HIV-1)
[19] = biological target: HIV-1 Env of pseudovirus TRJO4551.58 (clade B) (HIV-1)
[20] = biological target: HIV-1 Env of pseudovirus WEAU_d15_410_787 (clade B (T/F)) (HIV-1)
[21] = biological target: HIV-1 Env of pseudovirus WITO4160.33 (clade B) (HIV-1)
[22] = biological target: HIV-1 Env of pseudovirus ZM249M.PL1 (clade C) (HIV-1)

Q: Which IC50, titer in TZM.bl cells [1] does the source give for 10-1074 (antibody) here?
A: > 50 µg/mL

Q: What about the IC80, titer in TZM.bl cells [1] of the same substance?
A: > 50 µg/mL

Q: What about the IC50, titer in TZM.bl cells [2] of the same substance?
A: > 50 µg/mL

Q: What about the IC80, titer in TZM.bl cells [2] of the same substance?
A: > 50 µg/mL

Q: And the IC50, titer in TZM.bl cells [3]?
A: 1.08 µg/mL

Q: And the IC80, titer in TZM.bl cells [3]?
A: 7.39 µg/mL

Q: And the IC50, titer in TZM.bl cells [4]?
A: > 50 µg/mL

Q: What about the IC80, titer in TZM.bl cells [4] of the same substance?
A: > 50 µg/mL

Q: How did the IC50 [5] turn out when N49P18.1 (antibody) was run?
A: 2.8 µg/mL

Q: And the IC80 [5]?
A: 9.66 µg/mL

Q: And the MPI [5]?
A: 99

Q: What about the IC50 [6] of the same substance?
A: 3.4 µg/mL

Q: What about the IC80 [6] of the same substance?
A: 20.2 µg/mL

Q: What about the MPI [6] of the same substance?
A: 97

Q: And the IC50 [7]?
A: 3.48 µg/mL

Q: What about the IC80 [7] of the same substance?
A: 20.8 µg/mL

Q: What about the MPI [7] of the same substance?
A: 93

Q: And the IC50 [8]?
A: 39.7 µg/mL

Q: What about the IC80 [8] of the same substance?
A: > 50 µg/mL

Q: And the MPI [8]?
A: 56

Q: What about the IC50 [9] of the same substance?
A: 1.33 µg/mL

Q: What about the IC80 [9] of the same substance?
A: 6.36 µg/mL

Q: And the MPI [9]?
A: 100

Q: What about the IC50 [10] of the same substance?
A: 1.92 µg/mL

Q: What about the IC80 [10] of the same substance?
A: 5.26 µg/mL

Q: And the MPI [10]?
A: 100

Q: What about the IC50 [11] of the same substance?
A: 3.95 µg/mL

Q: What about the IC80 [11] of the same substance?
A: 21.1 µg/mL

Q: What about the MPI [11] of the same substance?
A: 96

Q: And the IC50 [12]?
A: 8.98 µg/mL

Q: And the IC80 [12]?
A: 48 µg/mL

Q: And the MPI [12]?
A: 92

Q: And the IC50 [13]?
A: 32.5 µg/mL

Q: And the IC80 [13]?
A: > 50 µg/mL

Q: What about the MPI [13] of the same substance?
A: 61

Q: And the IC50 [14]?
A: > 50 µg/mL

Q: What about the IC80 [14] of the same substance?
A: > 50 µg/mL

Q: And the MPI [14]?
A: 37

Q: What about the IC50 [15] of the same substance?
A: 41.6 µg/mL

Q: What about the IC80 [15] of the same substance?
A: > 50 µg/mL

Q: And the MPI [15]?
A: 59

Q: What about the IC50 [16] of the same substance?
A: > 50 µg/mL

Q: What about the IC80 [16] of the same substance?
A: > 50 µg/mL

Q: And the MPI [16]?
A: 48

Q: And the IC50 [17]?
A: 4.92 µg/mL

Q: And the IC80 [17]?
A: 18.3 µg/mL

Q: And the MPI [17]?
A: 97

Q: What about the IC50 [18] of the same substance?
A: 17.3 µg/mL

Q: And the IC80 [18]?
A: > 50 µg/mL

Q: And the MPI [18]?
A: 79

Q: What about the IC50 [19] of the same substance?
A: 4.44 µg/mL

Q: What about the IC80 [19] of the same substance?
A: 14.7 µg/mL

Q: What about the MPI [19] of the same substance?
A: 99

Q: What about the IC50 [20] of the same substance?
A: 4.27 µg/mL

Q: What about the IC80 [20] of the same substance?
A: 15.5 µg/mL

Q: What about the MPI [20] of the same substance?
A: 98

Q: And the IC50 [21]?
A: 11 µg/mL

Q: What about the IC80 [21] of the same substance?
A: 37.6 µg/mL

Q: What about the MPI [21] of the same substance?
A: 87

Q: And the IC50 [22]?
A: 4.16 µg/mL

Q: And the IC80 [22]?
A: 19.8 µg/mL

Q: What about the MPI [22] of the same substance?
A: 98

Q: Which IC50, titer in TZM.bl cells [1] does the source give for PG9 (antibody) here?
A: 0.068 µg/mL

Q: What about the IC80, titer in TZM.bl cells [1] of the same substance?
A: 0.2 µg/mL

Q: And the IC50, titer in TZM.bl cells [2]?
A: 0.736 µg/mL

Q: What about the IC80, titer in TZM.bl cells [2] of the same substance?
A: 2.88 µg/mL

Q: What about the IC50, titer in TZM.bl cells [3] of the same substance?
A: > 50 µg/mL

Q: And the IC80, titer in TZM.bl cells [3]?
A: > 50 µg/mL

Q: What about the IC50, titer in TZM.bl cells [4] of the same substance?
A: 0.023 µg/mL

Q: What about the IC80, titer in TZM.bl cells [4] of the same substance?
A: 0.134 µg/mL

Q: With PG16 (antibody) as the substance, how does the IC50, titer in TZM.bl cells [1] read?
A: 0.022 µg/mL

Q: And the IC80, titer in TZM.bl cells [1]?
A: 0.143 µg/mL

Q: What about the IC50, titer in TZM.bl cells [2] of the same substance?
A: 0.28 µg/mL

Q: What about the IC80, titer in TZM.bl cells [2] of the same substance?
A: 4.38 µg/mL

Q: And the IC50, titer in TZM.bl cells [3]?
A: 1.72 µg/mL

Q: And the IC80, titer in TZM.bl cells [3]?
A: 44.7 µg/mL

Q: And the IC50, titer in TZM.bl cells [4]?
A: 0.024 µg/mL

Q: What about the IC80, titer in TZM.bl cells [4] of the same substance?
A: 0.125 µg/mL

Q: With N49P11 (antibody) as the substance, how does the IC50 [5] read?
A: 0.125 µg/mL

Q: What about the IC80 [5] of the same substance?
A: 0.487 µg/mL

Q: And the MPI [5]?
A: 100

Q: What about the IC50 [6] of the same substance?
A: 8.48 µg/mL

Q: And the IC80 [6]?
A: 20.9 µg/mL

Q: What about the MPI [6] of the same substance?
A: 100

Q: And the IC50 [7]?
A: 0.998 µg/mL

Q: And the IC80 [7]?
A: 7.13 µg/mL

Q: And the MPI [7]?
A: 100

Q: And the IC50 [8]?
A: 6.68 µg/mL

Q: And the IC80 [8]?
A: 25.6 µg/mL

Q: And the MPI [8]?
A: 100

Q: What about the IC50 [9] of the same substance?
A: 5.19 µg/mL

Q: What about the IC80 [9] of the same substance?
A: 22.6 µg/mL

Q: What about the MPI [9] of the same substance?
A: 100

Q: And the IC50 [10]?
A: 0.038 µg/mL

Q: What about the IC80 [10] of the same substance?
A: 0.135 µg/mL

Q: What about the MPI [10] of the same substance?
A: 100

Q: What about the IC50 [11] of the same substance?
A: 0.091 µg/mL

Q: What about the IC80 [11] of the same substance?
A: 0.387 µg/mL

Q: What about the MPI [11] of the same substance?
A: 100

Q: What about the IC50 [12] of the same substance?
A: 2.19 µg/mL

Q: And the IC80 [12]?
A: 11.7 µg/mL

Q: And the MPI [12]?
A: 100

Q: And the IC50 [13]?
A: 0.946 µg/mL

Q: And the IC80 [13]?
A: 6.05 µg/mL

Q: And the MPI [13]?
A: 100

Q: And the IC50 [14]?
A: 3.33 µg/mL

Q: And the IC80 [14]?
A: 13.2 µg/mL

Q: What about the MPI [14] of the same substance?
A: 100

Q: What about the IC50 [15] of the same substance?
A: 0.644 µg/mL

Q: And the IC80 [15]?
A: 3.3 µg/mL

Q: And the MPI [15]?
A: 100

Q: And the IC50 [16]?
A: 5.85 µg/mL

Q: And the IC80 [16]?
A: 17.8 µg/mL

Q: And the MPI [16]?
A: 100

Q: And the IC50 [17]?
A: 0.048 µg/mL

Q: What about the IC80 [17] of the same substance?
A: 0.308 µg/mL

Q: And the MPI [17]?
A: 100

Q: What about the IC50 [18] of the same substance?
A: 5.42 µg/mL

Q: And the IC80 [18]?
A: 20.5 µg/mL

Q: And the MPI [18]?
A: 100

Q: And the IC50 [19]?
A: 0.183 µg/mL

Q: What about the IC80 [19] of the same substance?
A: 0.656 µg/mL

Q: What about the MPI [19] of the same substance?
A: 100

Q: What about the IC50 [20] of the same substance?
A: 1.7 µg/mL

Q: What about the IC80 [20] of the same substance?
A: 6.02 µg/mL

Q: What about the MPI [20] of the same substance?
A: 100

Q: What about the IC50 [21] of the same substance?
A: 4.86 µg/mL

Q: What about the IC80 [21] of the same substance?
A: 13.2 µg/mL

Q: And the MPI [21]?
A: 100

Q: And the IC50 [22]?
A: 3.64 µg/mL

Q: And the IC80 [22]?
A: 17.4 µg/mL

Q: And the MPI [22]?
A: 100
